Experimental data reported in patent publication US20250121087A1, “ANTIBODY-DRUG CONJUGATES COMPRISING ANTI-B7-H3 ANTIBODIES” (priority 2020, published 2025).

T1: B7-H3 (Homo sapiens, UniProt Q5ZPR3)
T1 sequence (Q5ZPR3 29-534): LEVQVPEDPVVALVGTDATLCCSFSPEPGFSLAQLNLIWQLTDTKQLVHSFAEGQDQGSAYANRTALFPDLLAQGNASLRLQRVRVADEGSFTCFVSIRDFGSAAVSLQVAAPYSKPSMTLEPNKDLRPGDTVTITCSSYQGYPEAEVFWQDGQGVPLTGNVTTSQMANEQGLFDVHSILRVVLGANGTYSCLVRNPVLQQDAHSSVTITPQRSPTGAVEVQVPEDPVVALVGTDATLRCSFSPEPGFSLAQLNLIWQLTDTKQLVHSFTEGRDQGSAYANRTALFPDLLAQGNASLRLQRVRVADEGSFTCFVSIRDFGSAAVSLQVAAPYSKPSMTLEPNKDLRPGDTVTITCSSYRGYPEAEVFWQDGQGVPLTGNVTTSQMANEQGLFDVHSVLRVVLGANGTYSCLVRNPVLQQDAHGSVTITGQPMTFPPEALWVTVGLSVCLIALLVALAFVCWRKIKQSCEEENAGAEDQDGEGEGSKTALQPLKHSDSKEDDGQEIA

T2: human 4Ig B7-H3 (Homo sapiens, UniProt Q5ZPR3)
T2 construct: purchased Y-Biologics Inc
T2 sequence (Q5ZPR3 29-534): T1 sequence (Q5ZPR3 29-534)

T3: human 2Ig B7-H3 (Homo sapiens, UniProt Q5ZPR3)
T3 construct: purchased Acrobiosystems
T3 sequence (Q5ZPR3 29-316 isoform Q5ZPR3-2 limits assumed): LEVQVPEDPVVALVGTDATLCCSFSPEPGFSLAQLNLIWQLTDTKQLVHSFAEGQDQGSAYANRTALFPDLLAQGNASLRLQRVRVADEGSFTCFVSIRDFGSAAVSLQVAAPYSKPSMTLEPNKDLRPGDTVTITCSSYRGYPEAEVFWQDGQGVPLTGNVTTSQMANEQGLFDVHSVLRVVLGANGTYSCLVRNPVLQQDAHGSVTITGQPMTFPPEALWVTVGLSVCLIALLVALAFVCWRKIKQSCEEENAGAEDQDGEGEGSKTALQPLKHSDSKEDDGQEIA

T4: mouse B7-H3 (Mus musculus, UniProt Q8VE98)
T4 construct: purchased Sino biological Inc
T4 sequence (Q8VE98 29-316): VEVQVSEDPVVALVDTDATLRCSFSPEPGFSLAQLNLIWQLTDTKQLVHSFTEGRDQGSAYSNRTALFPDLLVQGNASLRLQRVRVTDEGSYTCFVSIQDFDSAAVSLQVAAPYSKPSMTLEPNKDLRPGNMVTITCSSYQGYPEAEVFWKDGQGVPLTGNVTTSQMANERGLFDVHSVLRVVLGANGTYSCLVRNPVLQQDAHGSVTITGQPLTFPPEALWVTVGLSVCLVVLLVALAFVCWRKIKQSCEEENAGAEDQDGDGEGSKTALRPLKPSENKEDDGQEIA

B1: Enoblituzumab (antibody, chains of the INN, looked up)
heavy: EVQLVESGGGLVQPGGSLRLSCAASGFTFSSFGMHWVRQAPGKGLEWVAYISSDSSAIYYADTVKGRFTISRDNAKNSLYLQMNSLRDEDTAVYYCGRGRENIYYGSRLDYWGQGTTVTVSSASTKGPSVFPLAPSSKSTSGGTAALGCLVKDYFPEPVTVSWNSGALTSGVHTFPAVLQSSGLYSLSSVVTVPSSSLGTQTYICNVNHKPSNTKVDKRVEPKSCDKTHTCPPCPAPELVGGPSVFLLPPKPKDTLMISRTPEVTCVVVDVSHEDPEVKFNWYVDGVEVHNAKTKPPEEQYNSTLRVVSVLTVLHQDWLNGKEYKCKVSNKALPAPIEKTISKAKGQPREPQVYTLPPSREEMTKNQVSLTCLVKGFYPSDIAVEWESNGQPENNYKTTPLVLDSDGSFFLYSKLTVDKSRWQQGNVFSCSVMHEALHNHYTQKSLSLSPG
light: DIQLTQSPSFLSASVGDRVTITCKASQNVDTNVAWYQQKPGKAPKALIYSASYRYSGVPSRFSGSGSGTDFTLTISSLQPEDFATYYCQQYNNYPFTFGQGTKLEIKRTVAAPSVFIFPPSDEQLKSGTASVVCLLNNFYPREAKVQWKVDNALQSGNSQESVTEQDSKDSTYSLSSTLTLSKADYEKHKVYACEVTHQGLSSPVTKSFNRGEC
B2: AB2 (antibody, V domains shown)
VH: QVQLVESGAEVKKPGASVKLSCKASGYTFSSYWMHWVRQAPGQRLEWMGEINPGNGHTNYNEKFKSRVTITVDKSASTAYMELSSLRSEDTAVYYCVADPRRPKVPTALFVYWGQGTLVTVSS
VL: DIQMTQSPSSVSASVGDRVTISCRASQGIGTWLAWYQQKPGKAPRLLIYAASSLDSGVPSRFSASGSGTDFTLTISSLQPEDFATYYCQQAINFPITFGQGTRLEIK

Assays:
B7-H3 = biological target: T1, B7-H3; conditions: Table 1, development state of B7-H3 ADC; cited from earlier work
human 4Ig B7-H3 = biological target: T2, human 4Ig B7-H3; experiment: Biacore (SPR) binding kinetics, human 4Ig B7-H3; conditions: analyte Human 4IgB7-H3, antibody as immobilized ligand
Method: (§1) The binding affinity of the purified anti-B7-H3 monoclonal antibodies was determined by BLI-based OCTET or SPR-based Biacore. Further the binding kinetics of the antibodies binding to human, cynomolgus monkey and mouse B7-H3 antigen are shown in Table 37.
(§2) A Biacore 8K (GE Life science) instrument was used to measure the binding kinetics about several B7-H3 variants (analyte) binding to various mAbs (ligands). Antibodies were captured onto the immobilized anti-human Fc antibody (GE Life science). Anti-Fc antibodies were immobilized to approximately 7,000 RU on CM5 sensor chip using a standard amine coupling method on both active cell and reference cell. For binding kinetic measurements, the HBS-EP+ was used for running buffer (10 mM Hepes, pH7.4, 150 mM NaCl, 3 mM EDTA, 0.05% polysorbate20). Anti-B7-H3 antibodies were diluted to 0.5 ug/mL in running buffer and injected for 110 s on active cells only. After capturing ligand, various B7-H3 antigens were analyzed for 120 s and the dissociation was monitored for 600 s at a flow rate of 30 ul/min. […] Kinetic information was calculated by fitting data to a 1:1 binding model using Biacore Insight Evaluation software (GE Life Science) to determine ka (association constant), kd (dissociation constant), and KD (equilibrium dissociation constant).

human 2Ig B7-H3 = biological target: T3, human 2Ig B7-H3; experiment: Biacore (SPR) binding kinetics, human 2Ig B7-H3; conditions: analyte Human 2IgB7-H3, antibody as immobilized ligand
Method: as §1, §2

cynomolgus monkey B7-H3 = experiment: Biacore (SPR) binding kinetics, cynomolgus monkey B7-H3; conditions: analyte Cyno B7-H3, antibody as immobilized ligand
Method: as §1, §2

mouse B7-H3 = biological target: T4, mouse B7-H3; experiment: Biacore (SPR) binding kinetics, mouse B7-H3; conditions: analyte Mouse B7-H3, antibody as immobilized ligand
Method: as §1, §2

Row | Molecule | Kd (B7-H3) [nM] | Ka (human 4Ig B7-H3) [M⁻¹ s⁻¹] | Kd (human 4Ig B7-H3) [s⁻¹] | Ka (human 2Ig B7-H3) [M⁻¹ s⁻¹] | Kd (human 2Ig B7-H3) [s⁻¹] | Ka (cynomolgus monkey B7-H3) [M⁻¹ s⁻¹] | Kd (cynomolgus monkey B7-H3) [s⁻¹] | Ka (mouse B7-H3) [M⁻¹ s⁻¹] | Kd (mouse B7-H3) [s⁻¹]
1 | B1 | 7 |  |  |  |  |  |  |  | 
2 | B2 |  | 446000 | 0.000199 | 206000 | 0.00515 | 481000 | 0.000442 | 408000 | 0.0193
